The labels stand for the following.
B1: RSPH3 (parent)
chain: QRLEEQERRHREEKERRKKQQWEI
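Further: lentivirally expressed fusions sorted by FACS into six bins by GFP to DsRed ratio, PSI derived from sequencing read proportions per bin multiplied by bin number.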

Variants of B1 are the subject of the data set. In words: protein stability index of a GFP-peptide fusion (GPS, HEK-293T) (PSI 1-6); higher = more stable. The conditions noted are these: c terminus: a fixed tail appended.
As to QRLEEQERRHRERKERRKKQQWEI [E13R], the protein stability index came to 4.47.
With QRLEEQERRHREQKERRKKQQWEI [E13Q] the figure was 4.52; with QRLEEQERRHREWKERRKKQQWEI [E13W], 3.34; with QRLEEQERRHRENKERRKKQQWEI [E13N], 4.16.
In the case of QRLEEQERRHREGKERRKKQQWEI [E13G] it was 4.55; in that of QRLEEQERRHREMKERRKKQQWEI [E13M], 3.99; in that of QRLEEQERRHRESKERRKKQQWEI [E13S], 4.02.
In the case of QRLEEQERRHREEKRRRKKQQWEI [E15R] it was 3.75; in that of QRLEEQERRHREEKCRRKKQQWEI [E15C], 3.74; in that of QRLEEQERRHREEKQRRKKQQWEI [E15Q], 4.85.
For QRLEEQERRHREEKFRRKKQQWEI [E15F], the protein stability index came to 3.92.
Take QRLEEQERRHREEKKRRKKQQWEI [E15K]: the protein stability index came to 4.74.
In the case of QRLEEQERRHREEKARRKKQQWEI [E15A] it was 4.44; in that of QRLEEQERRHREEKTRRKKQQWEI [E15T], 4.7.
Regarding QRLEEQERRHREEKSRRKKQQWEI [E15S], the protein stability index was determined as 4.58.
QRLEEQHRRHREEKERRKKQQWEI [E7H]: the protein stability index is 4.28.
With QRLEEQVRRHREEKERRKKQQWEI [E7V] the figure was 4.57; with QRLEEQYRRHREEKERRKKQQWEI [E7Y], 3.81; with QRLEEQRRRHREEKERRKKQQWEI [E7R], 4.26.
Take QRLEEQQRRHREEKERRKKQQWEI [E7Q]: the protein stability index was found to be 3.38.
With QRLEEQARRHREEKERRKKQQWEI [E7A] the figure was 4.36; with QRLEEQDRRHREEKERRKKQQWEI [E7D], 4.04; with QRLEEQMRRHREEKERRKKQQWEI [E7M], 3.38.
With QRLGEQERRHREEKERRKKQQWEI [E4G] the figure was 5.08; with QRLCEQERRHREEKERRKKQQWEI [E4C], 4.38.
Turning to QRLSEQERRHREEKERRKKQQWEI [E4S], the protein stability index was found to be 4.84.
In the case of QRLMEQERRHREEKERRKKQQWEI [E4M] it was 4.1.
In the case of QRLLEQERRHREEKERRKKQQWEI [E4L] it was 4.46; in that of QRLEEQERRHREEKERSKKQQWEI [R17S], 4.72; in that of QRLEEQERRHREEKERYKKQQWEI [R17Y], 4.96.
QRLEEQERRHREEKERGKKQQWEI [R17G]: the protein stability index came out at 4.83.
In the case of QRLEEQERRHREEKERIKKQQWEI [R17I] it was 3.87; in that of QRLEEQERRHREEKERPKKQQWEI [R17P], 4.31; in that of QRLEEQERRHREEKERMKKQQWEI [R17M], 4.77.
QRLEEQERRHQEEKERRKKQQWEI [R11Q]: the protein stability index was determined as 4.67.
In the case of QRLEEQERRHTEEKERRKKQQWEI [R11T] it was 4.62.
With QRLEEQERRHMEEKERRKKQQWEI [R11M] the figure was 4.6; with QRLEEQERRHREEKERRKVQQWEI [K19V], 4.59.
With QRLEEQERRHREEKERRKLQQWEI [K19L] the figure was 4.59; with QRLEEQERRHREEKERRKPQQWEI [K19P], 4.62.
With QRLEEQERRHREEKERRKHQQWEI [K19H], the protein stability index amounted to 4.36.
With QRLEEQERRHREEKERRKMQQWEI [K19M] the figure was 4.79.
With QRLEEQERRHREEKERRKNQQWEI [K19N] the figure was 4.59; with QRLEEQERRHREEKERRKIQQWEI [K19I], 4.08.
In the case of QRLEEQERRHREEKERRKSQQWEI [K19S] it was 4.77; in that of QRLEEQERRHREEKERRKTQQWEI [K19T], 4.87; in that of QRLEEQERRHREEKERRKKQQHEI [W22H], 4.97.
Take QRLEEQERRHREEKERRKKQQIEI [W22I]: the protein stability index was 4.38.
In the case of QRLEEQERRHREEKERRKKQQNEI [W22N] it was 5.52.
Regarding QRLEEQERRHREEKERRKKQQPEI [W22P], the protein stability index stood at 4.64.
With QRLEEQERRHREEKERRKKQQMEI [W22M], the protein stability index turned out to be 4.88.
As for QRLEEQERRHREEKERRKKQQYEI [W22Y], the protein stability index is 4.88.
In the case of QRLEEQERRNREEKERRKKQQWEI [H10N] it was 5.08; in that of QRLEEQERRSREEKERRKKQQWEI [H10S], 4.53; in that of QRLEEQERRKREEKERRKKQQWEI [H10K], 4.84.
With QRLEEQERRMREEKERRKKQQWEI [H10M] the figure was 4.43.
In the case of QRLEEQERRRREEKERRKKQQWEI [H10R] it was 3.69; in that of QRLEEQERRQREEKERRKKQQWEI [H10Q], 5.04; in that of QRLEEQERRLREEKERRKKQQWEI [H10L], 4.87.
Take QRLEEQERREREEKERRKKQQWEI [H10E]: the protein stability index was 5.26.
In the case of QRLEEQERRDREEKERRKKQQWEI [H10D] it was 4.38; in that of QRLEEQERRHREEKERRNKQQWEI [K18N], 4.28; in that of QRLEEQERRHREEKERRTKQQWEI [K18T], 4.68.
For the variant QRLEEQERRHREEKERRVKQQWEI [K18V], the protein stability index stood at 4.18.
With QRLEEQERRHREEKERRQKQQWEI [K18Q] the figure was 4.83; with QRLEEQERRHREEKERRPKQQWEI [K18P], 4.72; with QRLEEQERRHREEKERRHKQQWEI [K18H], 4.56.
With QRLEEQERRHREEKERRCKQQWEI [K18C] the figure was 4.32.
As for QRLEEQERRHREEKERRYKQQWEI [K18Y], the protein stability index was 3.59.
With QRLEEQERRHREEPERRKKQQWEI [K14P] the figure was 4.55; with QRLEEQERRHREECERRKKQQWEI [K14C], 4.63; with QRLEEQERRHREEEERRKKQQWEI [K14E], 5.13.
In the case of QRLEEQERRHREERERRKKQQWEI [K14R] it was 4.15.
With QRLEEQERRHREEGERRKKQQWEI [K14G] the figure was 5.25; with QRLEEQERRHREENERRKKQQWEI [K14N], 4.87.
For QRLEEQERRHREEYERRKKQQWEI [K14Y], the protein stability index was 4.34.
On to QRLEEQERRHREEQERRKKQQWEI [K14Q], for which the protein stability index was found to be 4.26.
With QRLEEQERFHREEKERRKKQQWEI [R9F], the protein stability index was determined as 4.98.
As for QRLEEQERWHREEKERRKKQQWEI [R9W], the protein stability index came out at 4.47.
In the case of QRLEEQERAHREEKERRKKQQWEI [R9A] it was 5.32; in that of QRLEEQERLHREEKERRKKQQWEI [R9L], 4.81.
Turning to QRLEEQERVHREEKERRKKQQWEI [R9V], the protein stability index stood at 4.85.
With QRLEEQERRHRNEKERRKKQQWEI [E12N] the figure was 4.57; with QRLEEQERRHRDEKERRKKQQWEI [E12D], 5; with QRLEEQERRHRTEKERRKKQQWEI [E12T], 4.28.
With QRLEEQERRHRKEKERRKKQQWEI [E12K] the figure was 3.58; with QRLEEQERRHRGEKERRKKQQWEI [E12G], 4.36; with QRLEEQERRHREEKERRKKQQWES [I24S], 4.76.
With QRLEEQERRHREEKERRKKQQWER [I24R], the protein stability index is 5.14.
In the case of QRLEEQERRHREEKERRKKQQWED [I24D] it was 5; in that of QRLEEQERRHREEKERRKKQQWEL [I24L], 4.78; in that of QRLEEQERRHREEKERRKKQQWEN [I24N], 4.68.
In the case of QRLEEQERRHREEKERRKKQQWEW [I24W] it was 4.51; in that of QRLEEQERRHREEKERRKKQQWEF [I24F], 4.34.

Values taken from the supplement of paper PMC10567573.
